Experimental findings from the supplement of paper PMC10567573 are described below.

B1: OAS1 (parent)
chain: LTVYAWERGSMKTHFNTAQGFRTV
B2: RSPH3 (parent)
chain: LELQRQREARKRALARKQAQEQLR
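Note: lentivirally expressed fusions sorted by FACS into six bins by GFP to DsRed ratio, PSI derived from sequencing read proportions per bin multiplied by bin number.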

Variants of B1 are the subject of one data set. In words: protein stability index of a GFP-peptide fusion (GPS, HEK-293T) (PSI 1-6); higher = more stable. To be noted: c terminus: a fixed tail appended.
On to LTVYCWERGSMKTHFNTAQGFRTV [A5C], for which the protein stability index stood at 3.68.
For the variant LTVYLWERGSMKTHFNTAQGFRTV [A5L], the protein stability index amounted to 2.8.
For LTVYEWERGSMKTHFNTAQGFRTV [A5E], the protein stability index amounted to 2.46.
The same measure, in the same setting: as for LTVYMWERGSMKTHFNTAQGFRTV [A5M], the figure is 2.06; as for LTVYDWERGSMKTHFNTAQGFRTV [A5D], 2.59.
Same read-out and setting: the figure for LTVYRWERGSMKTHFNTAQGFRTV [A5R] is 2.9.
The same measure, in the same setting: the figure for LTVYGWERGSMKTHFNTAQGFRTV [A5G] is 2.14; for LTVYHWERGSMKTHFNTAQGFRTV [A5H] it is 1.69; for LTVYQWERGSMKTHFNTAQGFRTV [A5Q] it is 1.54.
Consider LTVYKWERGSMKTHFNTAQGFRTV [A5K], for which the protein stability index worked out at 1.63.
Take LTVYPWERGSMKTHFNTAQGFRTV [A5P]: the protein stability index was 2.19.
As for LTVYTWERGSMKTHFNTAQGFRTV [A5T], the protein stability index came out at 2.75.
With LTVYSWERGSMKTHFNTAQGFRTV [A5S], the protein stability index turned out to be 1.91.
Consider LTVYNWERGSMKTHFNTAQGFRTV [A5N], for which the protein stability index came to 2.29.
On to LTYYAWERGSMKTHFNTAQGFRTV [V3Y], for which the protein stability index was 2.7.
Same read-out and setting: the figure for LTIYAWERGSMKTHFNTAQGFRTV [V3I] is 3.14; for LTKYAWERGSMKTHFNTAQGFRTV [V3K] it is 2.12; for LTQYAWERGSMKTHFNTAQGFRTV [V3Q] it is 2.09.
Same read-out and setting: the figure for LTSYAWERGSMKTHFNTAQGFRTV [V3S] is 2.12; for LTFYAWERGSMKTHFNTAQGFRTV [V3F] it is 3.04.
The same measure, in the same setting: as for LTAYAWERGSMKTHFNTAQGFRTV [V3A], the figure is 2.24; as for LTLYAWERGSMKTHFNTAQGFRTV [V3L], 2.49.
On to LTGYAWERGSMKTHFNTAQGFRTV [V3G], for which the protein stability index was determined as 1.91.
Consider LTNYAWERGSMKTHFNTAQGFRTV [V3N], for which the protein stability index stood at 2.05.
For the variant LTDYAWERGSMKTHFNTAQGFRTV [V3D], the protein stability index was found to be 2.57.
The same measure, in the same setting: the figure for LTMYAWERGSMKTHFNTAQGFRTV [V3M] is 2.16.
Still for that read-out and setting: as for LTPYAWERGSMKTHFNTAQGFRTV [V3P], the figure is 1.77.
Still for that read-out and setting: as for LTCYAWERGSMKTHFNTAQGFRTV [V3C], the figure is 2.02; as for LTWYAWERGSMKTHFNTAQGFRTV [V3W], 2.92.
In the case of LTTYAWERGSMKTHFNTAQGFRTV [V3T], the protein stability index stood at 1.96.
On the same count and under the same terms, as for LTHYAWERGSMKTHFNTAQGFRTV [V3H], the figure is 2.36.
The same measure, in the same setting: the figure for LTEYAWERGSMKTHFNTAQGFRTV [V3E] is 2.09.
On the same count and under the same terms, as for LTRYAWERGSMKTHFNTAQGFRTV [V3R], the figure is 2.46; as for LTVRAWERGSMKTHFNTAQGFRTV [Y4R], 1.77; as for LTVAAWERGSMKTHFNTAQGFRTV [Y4A], 2.01.
For the variant LTVCAWERGSMKTHFNTAQGFRTV [Y4C], the protein stability index was determined as 1.38.
LTVHAWERGSMKTHFNTAQGFRTV [Y4H]: the protein stability index amounted to 1.66.
On the same count and under the same terms, as for LTVNAWERGSMKTHFNTAQGFRTV [Y4N], the figure is 1.94; as for LTVLAWERGSMKTHFNTAQGFRTV [Y4L], 2.55; as for LTVEAWERGSMKTHFNTAQGFRTV [Y4E], 1.97.
In the case of LTVQAWERGSMKTHFNTAQGFRTV [Y4Q], the protein stability index was found to be 1.86.
On the same count and under the same terms, as for LTVMAWERGSMKTHFNTAQGFRTV [Y4M], the figure is 1.51; as for LTVGAWERGSMKTHFNTAQGFRTV [Y4G], 2.76; as for LTVFAWERGSMKTHFNTAQGFRTV [Y4F], 2.96.
The same measure, in the same setting: as for LTVTAWERGSMKTHFNTAQGFRTV [Y4T], the figure is 1.59.
As for LTVSAWERGSMKTHFNTAQGFRTV [Y4S], the protein stability index came out at 1.83.
On the same count and under the same terms, as for LTVIAWERGSMKTHFNTAQGFRTV [Y4I], the figure is 3.51; as for LTVDAWERGSMKTHFNTAQGFRTV [Y4D], 2.09.
Same read-out and setting: as for LTVKAWERGSMKTHFNTAQGFRTV [Y4K], the figure is 2.16.
Same read-out and setting: as for LTVPAWERGSMKTHFNTAQGFRTV [Y4P], the figure is 2.31; as for LTVWAWERGSMKTHFNTAQGFRTV [Y4W], 1.19; as for YTVYAWERGSMKTHFNTAQGFRTV [L1Y], 2.19.
Consider DTVYAWERGSMKTHFNTAQGFRTV [L1D], for which the protein stability index was found to be 2.26.
Same read-out and setting: the figure for FTVYAWERGSMKTHFNTAQGFRTV [L1F] is 2.48; for PTVYAWERGSMKTHFNTAQGFRTV [L1P] it is 2.14.
Still for that read-out and setting: as for QTVYAWERGSMKTHFNTAQGFRTV [L1Q], the figure is 1.79; as for TTVYAWERGSMKTHFNTAQGFRTV [L1T], 2.09.
The same measure, in the same setting: the figure for ATVYAWERGSMKTHFNTAQGFRTV [L1A] is 2.32; for ITVYAWERGSMKTHFNTAQGFRTV [L1I] it is 1.71.
VTVYAWERGSMKTHFNTAQGFRTV [L1V]: the protein stability index stood at 1.5.
HTVYAWERGSMKTHFNTAQGFRTV [L1H]: the protein stability index is 2.13.
Consider STVYAWERGSMKTHFNTAQGFRTV [L1S], for which the protein stability index was 2.1.
Turning to MTVYAWERGSMKTHFNTAQGFRTV [L1M], the protein stability index worked out at 2.57.
Same read-out and setting: the figure for GTVYAWERGSMKTHFNTAQGFRTV [L1G] is 2.31.
The same measure, in the same setting: the figure for KTVYAWERGSMKTHFNTAQGFRTV [L1K] is 2.17; for CTVYAWERGSMKTHFNTAQGFRTV [L1C] it is 1.74; for NTVYAWERGSMKTHFNTAQGFRTV [L1N] it is 2.
The same measure, in the same setting: the figure for WTVYAWERGSMKTHFNTAQGFRTV [L1W] is 2.79.
In the case of RTVYAWERGSMKTHFNTAQGFRTV [L1R], the protein stability index was found to be 2.28.
The same measure, in the same setting: the figure for ETVYAWERGSMKTHFNTAQGFRTV [L1E] is 2.17; for LAVYAWERGSMKTHFNTAQGFRTV [T2A] it is 2.03.
As to LFVYAWERGSMKTHFNTAQGFRTV [T2F], the protein stability index amounted to 3.19.
On the same count and under the same terms, as for LHVYAWERGSMKTHFNTAQGFRTV [T2H], the figure is 2.11.
For LKVYAWERGSMKTHFNTAQGFRTV [T2K], the protein stability index is 2.87.
Regarding LIVYAWERGSMKTHFNTAQGFRTV [T2I], the protein stability index turned out to be 2.45.
On the same count and under the same terms, as for LEVYAWERGSMKTHFNTAQGFRTV [T2E], the figure is 1.91; as for LQVYAWERGSMKTHFNTAQGFRTV [T2Q], 1.86; as for LYVYAWERGSMKTHFNTAQGFRTV [T2Y], 2.45.
On the same count and under the same terms, as for LGVYAWERGSMKTHFNTAQGFRTV [T2G], the figure is 1.25; as for LWVYAWERGSMKTHFNTAQGFRTV [T2W], 2.55; as for LRVYAWERGSMKTHFNTAQGFRTV [T2R], 2.04.
Same read-out and setting: the figure for LSVYAWERGSMKTHFNTAQGFRTV [T2S] is 2.21; for LNVYAWERGSMKTHFNTAQGFRTV [T2N] it is 1.84.
Consider LCVYAWERGSMKTHFNTAQGFRTV [T2C], for which the protein stability index came to 1.6.
Same read-out and setting: the figure for LMVYAWERGSMKTHFNTAQGFRTV [T2M] is 1.69; for LDVYAWERGSMKTHFNTAQGFRTV [T2D] it is 1.8; for LLVYAWERGSMKTHFNTAQGFRTV [T2L] it is 2.7.
The same measure, in the same setting: as for LPVYAWERGSMKTHFNTAQGFRTV [T2P], the figure is 1.93; as for LVVYAWERGSMKTHFNTAQGFRTV [T2V], 2.23.

In the next data set the parent is B2. The description is as above. To be noted: c terminus: a fixed tail appended.
Take LELQRQREARKRALARKQAQEQLS [R24S]: the protein stability index is 3.8.
On the same count and under the same terms, the figure for LELQRQREARKRALARKQAQEQLY [R24Y] is 3.16; for LELQRQREARKRALARKQAQEQLW [R24W] it is 2.98; for LELQRQREARKRALARKQAQEQLV [R24V] it is 4.43.
For the variant LELQRQREARKRALARKQAQEQLT [R24T], the protein stability index came to 3.82.
